In patent publication US20080221021A1, “Novel Corticotropin-Releasing Factor Receptor 1 (Crfr1) Agonist” (Max-Planck-Gesellschaft Zur Forderung Der, priority 2004, published 2008):

How the values were obtained:
Assay in all cases: competition binding
Conditions in all cases: modification not given
[1] = molecular target: T1, mouse CRFR2β (mouse), Q60748
T1 chain: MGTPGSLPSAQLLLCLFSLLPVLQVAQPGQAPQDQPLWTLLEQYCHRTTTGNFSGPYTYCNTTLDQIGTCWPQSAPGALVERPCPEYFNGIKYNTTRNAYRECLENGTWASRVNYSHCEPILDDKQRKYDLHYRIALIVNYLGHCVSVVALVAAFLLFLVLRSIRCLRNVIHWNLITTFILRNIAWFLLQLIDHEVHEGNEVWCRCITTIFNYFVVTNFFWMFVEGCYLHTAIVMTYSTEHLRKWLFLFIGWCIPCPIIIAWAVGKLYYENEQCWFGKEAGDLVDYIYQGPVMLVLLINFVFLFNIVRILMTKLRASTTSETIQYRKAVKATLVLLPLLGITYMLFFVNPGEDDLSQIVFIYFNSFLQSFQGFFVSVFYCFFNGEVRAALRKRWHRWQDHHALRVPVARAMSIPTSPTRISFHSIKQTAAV

[2] = molecular target: T2, rat CRFBP C-terminally fused with a His6 sequence (rat), P24388
T2 chain: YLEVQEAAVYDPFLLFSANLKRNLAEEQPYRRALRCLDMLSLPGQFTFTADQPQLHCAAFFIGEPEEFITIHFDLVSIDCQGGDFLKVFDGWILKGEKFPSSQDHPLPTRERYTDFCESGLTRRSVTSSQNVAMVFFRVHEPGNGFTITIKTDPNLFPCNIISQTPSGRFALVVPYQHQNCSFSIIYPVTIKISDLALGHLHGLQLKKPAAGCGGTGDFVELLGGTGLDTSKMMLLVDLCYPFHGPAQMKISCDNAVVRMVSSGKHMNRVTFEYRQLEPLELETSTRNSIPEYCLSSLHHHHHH

rat CRFR1α (rat), P35353 = molecular target: T3, rat CRFR1α (rat), P35353
T3 chain: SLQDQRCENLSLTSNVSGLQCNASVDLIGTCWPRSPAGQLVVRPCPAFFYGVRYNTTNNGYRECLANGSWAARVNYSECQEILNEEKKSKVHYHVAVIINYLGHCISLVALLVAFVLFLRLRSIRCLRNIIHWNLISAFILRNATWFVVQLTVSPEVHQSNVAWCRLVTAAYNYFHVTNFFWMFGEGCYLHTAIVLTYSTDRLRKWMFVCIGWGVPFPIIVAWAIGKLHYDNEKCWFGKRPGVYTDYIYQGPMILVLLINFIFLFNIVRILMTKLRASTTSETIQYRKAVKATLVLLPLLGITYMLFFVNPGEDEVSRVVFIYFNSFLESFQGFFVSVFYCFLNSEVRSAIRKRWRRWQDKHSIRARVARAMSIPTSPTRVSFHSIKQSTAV

SQEPPISLDLTFHLLREVLEMTKADQLAQQAHSNRKLLDIA [ovine corticotropin-releasing factor]
IC50 [1]: 160 nM | IC50 [2]: 450 nM | IC50 (rat CRFR1α (rat), P35353): 1.8 nM
